This data set concerns the molecule itself. As to the kind of experiment: crystal structure; purified channel in 14 mM HEGA-10, 6 mg/ml; crystallised in 10% glycerol, 90 mM HEPES pH 7, 20% PEG-400, 5% PEG-4000, 2.5% PEG-8000, 10 mM spermidine, 20 °C; space group P4212, one molecule in the asymmetric unit; 2.46 Å.

B1: KirBac3.1 S129R/S205L (natural protein, Magnetospirillum magnetotacticum)
chain: MTGGMKPPARKPRILNSDGSSNITRLGLEKRGWLDDHYHDLLTVSWPVFITLITGLYLVTNALFALAYLACGDVIENARPGSFTDAFFFSVQTMATIGYGKLIPIGPLANTLVTLEALCGMLGLAVAARLIYARFTRPTAGVLFSSRMVISDFEGKPTLMMRLANLRIEQIIEADVHLVLVRSEISQEGMVFRRFHDLTLTRSRLPIFSLSWTVMHPIDHHSPIYGETDETLRNSHSEFLVLFTGHHEAFAQNVHARHAYSCDEIIWGGHFVDVFTTLPDGRRALDLGKFHEIAQ
notes: KirBac3.1, inwardly rectifying potassium (Kir) channel homolog from Magnetospirillum magnetotacticum; the final model contains 283 of 301 residues; The tetramer arises from crystallographic symmetry (one molecule in the asymmetric unit, space group P4212); also called S129R/S205L double mutant; S129R/S205L mutant channel; source: size exclusion column, detergent exchanged to HEGA-10
Regarding B1, the binding result is “binds”.

For the origin of these results see paper PMC3879539, “Control of KirBac3.1 Potassium Channel Gating at the Interface between Cytoplasmic Domains*” (The Journal of Biological Chemistry, 2013).
